Results taken from the nanobody polyreactivity screen of Harvey et al. (2022).

Test: yeast display, Sf9 membrane polyspecificity reagent, FACS + sequencing; frameworks hold sequencing errors
Outline: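 Using colony PCR, genes from sorted yeast display clones were amplified, then sequenced on MiSeq at 2 × 250 and filtered by CDR length. The clones had been stained with 10% biotinylated, detergent-solubilized Sf9 membrane reagent for 1 hour at 4 °C and sorted by FACS into low and high (top ~1%) gates on anti-HA and streptavidin fluorescence. Polyreactivity labels come from the gate of origin.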

Sequence | polyreactivity (PSR sort gate)
QVQLVESGGGLVQAGGSLRLSCAASGYTFSYANAMGWYRQAPGKERELVASISSTGGRTYYADSVKGRFTISRDNAKNTVYLQMNSLKPEDTAVYYCASRYWRYGYWGQGTQVTVSS | high polyreactivity
QVQLVESGGGLVQAGGSLRLSCAASGYTFSYNAMGWYRQAPGKERELVARITRGTSTYADSVKGRFTISRDNAKNTVYLQMNSLKPEDTAVYYCAARPGSGRSYTSDYWGQGSQVTVSS | high polyreactivity
QVQLVESGGGLVQAGGSLRLSCAASGYTFSYNTMGWYRQAPGKERELVAAIRLSGGSTYYADSVKGRFTSSRDNAKNTVYLQMNSLKPEDTAVYYCAARQIITKFYTSNGVSYYYWGQGTQETVSS | high polyreactivity
QVQLVESGGGLVQAGGSLRLSCAASGYTFTGYAMGWYRQAPGKERELVAAITSIGGSTYYADSVKGRFTISRDNAKNTVYLQMNSLKPEDTAVYYCAAEGDYVYDMDYWGQGTQVTVSS | low polyreactivity
QVQLVESGGGLVQAGGSLRLSCAASGYTFTVYPMGGYRPAPGKERELVAAIRDGSSTNYADSVKGRFTISRDNAKNTVYLQMISLKPEDTAVYYCNAYSQSWNFYGDGDYWGQGTQVTVSS | low polyreactivity
QVQLVESGGGLVQAGGSLRLSCAASGYTFVLNAMGWYRQAPGKEREMVAAINLDSGNTNYADSVKGRFTISRDNAKNTVYLQMNSLKPEDTAVYYCNTDVKFGGTAYDYWGQGTQVNVSS | low polyreactivity
QVQLVESGGGLVQAGGSLRLSCAASGYTFVNYAMGWYRQAPGKEREFVAAISRSGGSTYYADSVKGRFTISRDNAKNTVYLQMNSLKPEDSAVYYCALRGYPPYKYYYWGQGTQVTVSS | high polyreactivity
QVQLVESGGGLVQAGGSLRLSCAASGYTFVRYAMGWYRQAPGKERELVAAISRSGGSTYYADSVKGRFTISRDNAKNTVYLQMNSLKPEDTAVYYCNAYPYSYYDYDYWGQGTQVTVSS | high polyreactivity
QVQLVESGGGLVQAGGSLRLSCAASGYTFWQYAMGWYRQAPGKERELVAAISGSGGRTYYADSVKGRFTISRDNAKNPVYLQMHSLKPEDTAVYYCAVGYRTPYLSRGGYWGQGTQVTVSS | high polyreactivity
QVQLVESGGGLVQAGGSLRLSCAASGYTFYANAMGWYRQAPGTEREFVASITWSGGSTYYADSVKGRFTISRDNAKNTVYLQMNSLKPEDTAVYYCAAESWFKYDYWGQGTQVTVSS | low polyreactivity
QVQLVESGGGLVQAGGSLRLSCAASGYTFYEYAMGWYRQAPGKERELGAAIRGSGGGTYYADSVKGRFTISRDNAKNTVYLQMNSLKPEDTAVYYCAVKYAYPYAGVSAIRYYYWGQGTQVTVSS | low polyreactivity
QVQLVESGGGLVQAGGSLRLSCAASGYTFYFYAMGWSRQAPGKEREFVAAIRSSGGRTYYADSVKGRFTISRDNAKNTVYLQMNSLKPVDTAVYYCAAAGYYYSVDGAGPRYDYWGQGTQVTVSS | low polyreactivity
QVQLVESGGGLVQAGGSLRLSCAASGYTFYKYAMGWYRQAPGKEREFVADITQSGGSTYYADSVKGRFTISRDNAKNTVYLEMNSLKPEDTAVYYCNAAYSYRPDPKGYDYWGQGTQVTVSS | low polyreactivity
QVQLVESGGGLVQAGGSLRLSCAASGYTFYPYAMGWYRQAPGKERELVAAISGGASTYYADSVKGRFTISRDNAKNTVYLHMNSLKPEDTAVYYCAVSVYTYVVWYVAATYDYWGQGTQVTVSS | low polyreactivity
QVQLVESGGGLVQAGGSLRLSCAASGYTFYRYAMGWYRQAPGKERELVATISRGGSTDYADSVKGRFTISRDNAKNTVYLQMNSLKPEDTAVYYCAARAFSRLTTFYYWGQGTQVTVSS | high polyreactivity
QVQLVESGGGLVQAGGSLRLSCAASGYTFYSNAMGWYRQAPGKERELVAVISRGGGTYYADSVKGRFTISRDNAKNTVYLQMNSLKPEDTAVYYCARRIGHGSRPYWLETWRYPYEYWGQGTQVTVSS | low polyreactivity
QVQLVESGGGLVQAGGSLRLSCAASGYTFYVYAMGWYRQAPGKERELVAAISSDTGRTYYADSVKGRFTISRDNAKNTVYLQMNSLKPEDTAVYYCAKRRVYGGYDYWGQGTQVTVSS | low polyreactivity
QVQLVESGGGLVQAGGSLRLSCAASGYTFYWNVMGWYRQAPGKERELVAVIDWSGGSTHYADSVKGRFTISRDNAKNTVYLQMNSLKPEDTAVYYCAAESVYTWYYQDDDDYWGQGTQVTVSS | low polyreactivity
QVQLVESGGGLVQAGGSLRLSCAASGYTIESYGMGWYRQAPGKDREMVAAIDWSGGSTYYADSVKGRFTISRDNAKNTVYLQMNSLIPEDTAVYYCNRDSAGPGDVILAYTGNDYWGQGTQVTVSS | low polyreactivity
QVQLVESGGGLVQAGGSLRLSCAASGYTIRANAMGWYRQAPGKERELVAAISRSGGSTYYADSVKGRFTISRDNAKNTVYLQMNSLKPEDTAVYYCNTRQQYQFNYWGQGTQVTVSS | high polyreactivity
QVQLVESGGGLVQAGGSLRLSCAASGYTISRYAMGWYIQAHGKERQLVAAISSRGGSTYYADSVKGRFTISRDNAKNTVYLQMNSLNPEDTADYYWAEDYGVGYGIVGSYYWGQGTQVTVSS | high polyreactivity
QVQLVESGGGLVQAGGSLRLSCAASGYTITQNAMGWYRQAPGKERELVASITSGGSTDYADSVKGRFTISRDNAKNTVYLQMNSLKPEDTAVYYCAAGTATDVASIGATKDYDYWGQGTQVTVSS | low polyreactivity

Sequence | polyreactivity (PSR sort gate)
QVQLVESGGGLVQAGGSLRLSCAASGYTIYYYAMGWYRQAPGKERELVAVITSRGPRTYYADSVKGRFTISRDNAKNTVYLQMNSLKPEDTAVYYCNKARGVAYDWGQGTQVTVSS | high polyreactivity
QVQLVESGGGLVQAGGSLRLSCAASGYTLGPYAMGWYRQAPGKERELVATISSAGNTNYADSVKGRFTISRDNAKNTVYLQMNSLKPEDTAVYYCAAAIWYGFGGASGGTYYYWGQGTQVTVSS | high polyreactivity
QVQLVESGGGLVQAGGSLRLSCAASGYTLNTYAMGWYRQAPGKERELVAAITWSGGRTYYADSVKGRFTISRDNAKNTVYLQMNSLKPEDTAVYYCNAVWRRSTGDSGYWGQGTQVTVSS | high polyreactivity
QVQLVESGGGLVQAGGSLRLSCAASGYTRFYAMGWYRHAPGKERELVAAISSSGGTTYYADSVKGRLTISRDNAKNTVYLQMNSLKPDDSAVYYCAKYVSYCRTLYEYWGQGTQVTVSS | high polyreactivity
QVQLVESGGGLVQAGGSLRLSCAASGYTSNMGWYRQAPGKERELVAAITSGGDGTYYADSVKGRFTISRDNAKNTVYLQMNSLKPEDTAVYYCAKRGRDYNYGRAGYYWGQGTQVTVSS | low polyreactivity
QVQLVESGGGLVQAGGSLRLSCAASGYTYRWYAMGWYRQAPGKEREMVAAINRNGGSTFYADSVKGRFTISRDNAKNSVYLQMNSLKPEDTAVYFCAARYSSLPRYLTDGLDYWGQGTQVTVSS | high polyreactivity
QVQLVESGGGLVQAGGSLRLSCAASHANAIGWYRQAPGKERELVAAITYRGGSTYYADSVKGRFTISRDNAKNTVYLQMNSLKPEDTAVYYCNTDVYLYVYDFGYNYWGQGTQVTVSS | low polyreactivity
QVQLVESGGGLVQAGGSLRLSCAASLRIFYSNAMGWSRQAPGKERELVAAISSSGGITYYADSVKGRFTISRDNAKNTVYLQMNSLKPEDTAVYYCAVDSRHYIRAFDHWGQGTQVTVSS | low polyreactivity
QVQLVESGGGLVQAGGSLRLSCAASLSIFYVNAMGWYRQAPGKESELVAAISFSGGTTYYADSVKGRFTISRDNAKNTVYLQMNSLKPEDTAVYYCNTPSSREMDYWGQGTQVTVSS | low polyreactivity
QVQLVESGGGLVQAGGSLRLSCAASMGWYRQAPGKERELVAAITTRTGTTYYADSVKGRFTISRDNAKNTVYLQMNSLKPEDTAVYYCSKRGYYRYYYWGQGTQVTVSS | high polyreactivity
QVQLVESGGGLVQAGGSLRLSCAASPNIFHTYGMGWYRQAPWKERELVAAITSDGGTYYADSVKGRFTISRDNAKNTVYLQMNSLNPEDSAVYYCAAYTYYYAIHAYWGQGSQVTVSS | low polyreactivity
QVQLVESGGGLVQAGGSLRLSCAASRIFRGYAMGWYRQAPGKERELVAAIRRGGSTNYADSVKGRFTISRDNAKNTVYLQMNCLKPEVTAVYYCNAYLYLPRYDYWGQGTQVTVSS | high polyreactivity
QVQLVESGGGLVQAGGSLRLSCAASRITLNRNAMGWYRQAPGKERELVARISRRGGTTYYADSVKGRFTISRDNENNTVYLQMNSLKPEDTAVYYFNAGPYGGNPFDYWGQGPQVTVSS | high polyreactivity
QVQLVESGGGLVQAGGSLRLSCAASRITSYGYAMGWYRQAPGKERELVAAISRSGGTTYYADSVKGRFTISRDNAKNTVYVQMNILKPEDTAVYYCAVGKSHRGGGVTKFNYWGQGTQVTVSS | low polyreactivity
QVQLVESGGGLVQAGGSLRLSCAASRLIFRGNDMGWYRQAPGKERELLAGINSSGSTNYADSVKGRFTISRDNAKNTVYLHMNSLKPEDTAVYYCAARAIVSFDYWGQGTQVTVSS | low polyreactivity
QVQLVESGGGLVQAGGSLRLSCAASRLTFNTYTIGWYRQAPGKERELVAGRSKSGGRTYYADSVKGRFTISRDNAKITVYLQMNILKAEDTSVYYCSTRSTTDFYWGHGTQVTVSS | high polyreactivity
QVQLVESGGGLVQAGGSLRLSCAASRRIFASNAMGWNSQAPGKERELVAAITSSGGSTYYADSVKGRFTISLDNAKNTVYLQMNSLKPEDTAVYYCNAGDYYYRLVTAKPSSYDYWGQGTQVTVSS | high polyreactivity
QVQLVESGGGLVQAGGSLRLSCAASRRIFSRYAMGWYRQAPGKERELVAAITGRGGSTYYADSVKGRFTISRDNAKNTVYLQMNSLKPEDTAVYYCAADVPPRRNFVKYYYWGQGTQVTVSS | high polyreactivity
QVQLVESGGGLVQAGGSLRLSCAASRRTFIANAMGWYRQAPGNGREWVAVITLNGGSTYYADSVKRRFTLSRDNAKNTVYLQMNSLKPEDTAVYYCAADVYWDYYWGQGTQVTVSS | low polyreactivity
QVQLVESGGGLVQAGGSLRLSCAASRRTFYYAMGWYRQAPWKERYADSVKGRFTISRDNAKNTVYLQMNSLKPVDTAVYYCAAKVPEPPSLDESDYWGQGTQVTVSS | low polyreactivity
QVQLVESGGGLVQAGGSLRLSCAASRRTYKYNAMGWYRQAPGKEREVVAAISRSGGSTYYADSVKGRFTISRDNAKNTVYLQMNILKPEDTAVYDCAVSYRPGGYRRHFRYVYWGQGTQVTVSS | high polyreactivity
